Experimental data reported in IntAct's records for PubMed 17662948.

Target: rd23b_human RAD23B (UniProt P54727)
Sequence (P54727 whole entry): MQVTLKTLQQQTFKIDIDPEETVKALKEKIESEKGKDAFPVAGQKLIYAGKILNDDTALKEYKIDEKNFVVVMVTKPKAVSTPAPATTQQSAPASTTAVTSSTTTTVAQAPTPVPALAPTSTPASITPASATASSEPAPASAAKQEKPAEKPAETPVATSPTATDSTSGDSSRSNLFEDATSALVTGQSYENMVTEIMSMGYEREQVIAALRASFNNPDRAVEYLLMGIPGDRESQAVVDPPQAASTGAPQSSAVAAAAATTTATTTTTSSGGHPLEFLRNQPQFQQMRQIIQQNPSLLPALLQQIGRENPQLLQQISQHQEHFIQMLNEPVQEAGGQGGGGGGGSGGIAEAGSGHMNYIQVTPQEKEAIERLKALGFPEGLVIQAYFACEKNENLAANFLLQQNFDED

Paired box protein Pax-3 (Mus musculus), P24610 K437R, sequence (P24610 whole entry K437R): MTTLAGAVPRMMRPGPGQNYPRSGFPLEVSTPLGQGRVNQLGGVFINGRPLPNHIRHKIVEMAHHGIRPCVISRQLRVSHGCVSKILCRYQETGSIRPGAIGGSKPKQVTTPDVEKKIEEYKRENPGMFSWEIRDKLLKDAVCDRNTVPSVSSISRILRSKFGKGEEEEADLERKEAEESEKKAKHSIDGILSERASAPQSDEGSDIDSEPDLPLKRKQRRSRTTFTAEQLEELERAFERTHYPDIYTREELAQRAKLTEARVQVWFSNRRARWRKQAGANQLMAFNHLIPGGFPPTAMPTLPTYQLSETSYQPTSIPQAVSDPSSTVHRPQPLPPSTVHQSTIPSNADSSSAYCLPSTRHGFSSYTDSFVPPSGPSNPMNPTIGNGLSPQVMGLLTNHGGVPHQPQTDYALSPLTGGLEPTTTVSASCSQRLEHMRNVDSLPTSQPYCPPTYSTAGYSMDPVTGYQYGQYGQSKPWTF
Paired box protein Pax-3 (Mus musculus), P24610 K475R, sequence (P24610 whole entry K475R): as the sequence (P24610 whole entry K437R) above, with R437K, K475R counted along it

effect of a mutation on the interaction	Substance
decreasing interaction	Paired box protein Pax-3 (Mus musculus), P24610 K437R
decreasing interaction	Paired box protein Pax-3 (Mus musculus), P24610 K475R
